Reference: patent US20220175781A1, “CD40L COMPOSITIONS AND METHODS FOR TUNABLE REGULATION” (Obsidian Therapeutics, Inc., priority 2019, published 2022)

Experiments:
HEK293T cells = test: Soluble CD40L ELISA, transiently transfected HEK293T cells; type: cell-based, human; details: HEK293T cells
Method: Soluble CD40L (sCD40L) constructs OT-001672, OT-001686, OT-001673, OT-001674, OT-001677, and OT-001684 were transiently transfected into HEK293T cells. Cells were treated with one of the following ligands 1 μM Shield-1, 50 μM TMP, 1 μM Bazedoxifene (BZD) or vehicle control.
The pg/mL levels of soluble CD40L were measured by ELISA (Table 14). Recombinant soluble CD40L was used as the standard in the experiments.

HEK-Blue CD40 = HEK-Blue CD40 assay with sCD40L constructs; type: cell-based; details: ligand treated
T cells (CD4+ and CD8+) = test: Regulation of CD40L in T cells by different drug responsive domains; type: cell-based
HEK 293T cells = test: hDHFR regulated CD40L surface expression, HEK 293T cells (flow cytometry); type: cell-based, human; details: 50 μM TMP 24 hours
Method: HEK 293T cells were transiently […] with hDHFR regulated constructs namely OT-001962, OT-001961, OT-001963 for 24 hours. Following transfection, cells were treated with 50 μM TMP for 24 hours and CD40L cell surface expression was measured using flow cytometry. […] CD40L expression in the absence of ligand was virtually undetectable.

Jurkat cells = test: DHFR regulated CD40L expression, transduced Jurkat cells (flow cytometry); type: cell-based
Method: Jurkat cells were transduced with lentiviruses corresponding to OT-001662, OT-001962, OT-001961, OT-001963. 24 hours after transduction, cells were split and treated with DMSO or 50 μM TMP for another 24 hours until flow cytometry-based analysis. The results are shown in Table 37 where SR indicates stabilization ration.

[1] = tested on: T cells (CD4 and CD8 positive); test: TMP dose response of OT-001962, CD40L MFI in CD4 and CD8 positive T cells; type: cell-based
Method: Dose response with TMP in T cells were conducted for OT-001962. Expression of CD40L was measured at (a) day 4 after transduction, (b) after freezing and thawing the cells or (c) after freezing and thawing the cells followed by restimulation with CD3/CD28 beads.

CD40 = CD40 (UniProt P25942); test: cell-based or functional assay
Sequence of CD40 (P25942 21-277 limits assumed): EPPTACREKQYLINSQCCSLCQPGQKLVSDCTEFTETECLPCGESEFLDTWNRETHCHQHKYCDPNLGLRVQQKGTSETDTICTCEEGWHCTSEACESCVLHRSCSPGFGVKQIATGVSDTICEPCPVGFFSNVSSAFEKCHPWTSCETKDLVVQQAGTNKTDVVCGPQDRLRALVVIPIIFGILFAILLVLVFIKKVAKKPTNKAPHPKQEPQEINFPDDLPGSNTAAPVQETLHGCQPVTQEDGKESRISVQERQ

HEK-Blue™ CD40 cells = test: HEK-Blue CD40 SEAP reporter co-culture with transduced Jurkat cells; type: cell-based; details: ligand 24 h (1 μM Shield-1, 50 μM TMP or 1 μM Bazedoxifene), recombinant soluble CD40L as standard
Method: Jurkat cells transduced with OT-001661, OT-001685, OT-001662, OT-001666, or OT-001667 were co-cultured with HEK-Blue™ CD40 cells (Invivogen, San Diego, Calif.). Cocultures were treated with ligands (1 μM Shield-1, 50 μM TMP, 1 μM Bazedoxifene (BZD) or vehicle control) for 24 hours and the secreted embryonic alkaline phosphatase (SEAP) reporter levels were measured in the media. All vehicle treated samples had background SEAP activity. Recombinant soluble CD40L was used as the standard in the experiments.

B1: OT-001673: Soluble CD40L (sCD40L) construct (protein)
chain: GSSGISLIAALAVDYVIGMENAMPWNLPADLAWFKRNTLNKPVIMGRHTWESIGRPLPGRKNIILSSQPGTDDRVTWVKSVDEAIAACGDVPEIMVIGGGRVIEQFLPKAQKLYLTHIDAEVEGDTHFPDYEPDDWESVFSEFHDADAQNSHSYCFEILERRGSMHMQKGDQNPQIAAHVISEASSKTTSVLQWAEKGYYTMSNNLVTLENGKQLTVKRQGLYYIYAQVTFCSNREASSQAPFIASLCLKSPGRFERILLRAANTHSSAKPCGQQSIHLGGVFELQPGASVFVNVTDPSQVSHGTGFTSFGLLKL
ligand dependent regulation of soluble CD40L levels (HEK293T cells; ELISA): ligand dependent regulation
functionality in HEK-Blue CD40 assay (HEK-Blue CD40): higher functionality

B2: OT-001962: hDHFR regulated CD40L construct (protein)
chain: MVGSLNCIVAVSQNMGIGKNGDLPWPPLRNEFRYFERMTTTSSVEGKQNLVIMGKKTWFSIPEKNRPLKGRINLVLSRELKEPPQGAHFLSRSLDDALKLTEHPELANKVDMVWIVGGSSVIKEAMNHPGHLKLFVTRIMQDFESDTFFPEIDLEKYKLLPEYPGVLSDVQEEKGIKYKFEVYEKNDHMIETYNQTSPRSAATGLPISMKIFMYLLTVFLITQMIGSALFAVYLHRRLDKIEDERNLHEDFVFMKTIQRCNTGERSLSLLNCEEIKSQFEGFVKDIMLNKEETKKENSFEMQKGDQNPQIAAHVISEASSKTTSVLQWAEKGYYTMSNNLVTLENGKQLTVKRQGLYYIYAQVTFCSNREASSQAPFIASLCLKSPGRFERILLRAANTHSSAKPCGQQSIHLGGVFELQPGASVFVNVTDPSQVSHGTGFTSFGLLKL
CD40L positive (T cells (CD4+ and CD8+); All Cells, 100 uM TMP): 71.6%
MFI (T cells (CD4+ and CD8+); All Cells, 100 uM TMP): 1109
CD40L positive (T cells (CD4+ and CD8+); All Cells, DMSO): 46.5%
MFI (T cells (CD4+ and CD8+); All Cells, DMSO): 434
CD40L positive (T cells (CD4+ and CD8+); CD4+, 100 uM TMP): 83.5%
MFI (T cells (CD4+ and CD8+); CD4+, 100 uM TMP): 1468
CD40L positive (T cells (CD4+ and CD8+); CD4+, DMSO): 58.3%
MFI (T cells (CD4+ and CD8+); CD4+, DMSO): 548
CD40L positive (T cells (CD4+ and CD8+); CD8+, 100 uM TMP): 32.1%
MFI (T cells (CD4+ and CD8+); CD8+, 100 uM TMP): 455
CD40L positive (T cells (CD4+ and CD8+); CD8+, DMSO): 4.1%
MFI (T cells (CD4+ and CD8+); CD8+, DMSO): 157
% CD40L (HEK 293T cells): 14.3%
stabilization ratio, ranking among the hDHFR constructs (Jurkat cells; 50 μM TMP versus DMSO): highest stabilization ratio
TMP dependent regulation (Jurkat cells; 50 μM TMP versus DMSO 24 hours): strong TMP dependent regulation
% CD40L expression (Jurkat cells; TMP (50 μM)): 50%
SR (Jurkat cells; TMP (50 μM) versus Vehicle): 16.7
% CD40L expression (Jurkat cells; Vehicle (DMSO)): 3%
CD40L expression (MFI) ([1]; CD4+, Day 4, TMP 0.1 nM): 388
CD40L expression (MFI) ([1]; CD4+, Day 4, TMP 1 nM): 396
CD40L expression (MFI) ([1]; CD4+, Day 4, TMP 10 nM): 405
CD40L expression (MFI) ([1]; CD4+, Day 4, TMP 100 nM): 388
CD40L expression (MFI) ([1]; CD4+, Day 4, TMP 1000 nM): 480
CD40L expression (MFI) ([1]; CD4+, Day 4, TMP 10000 nM): 1067
CD40L expression (MFI) ([1]; CD4+, Day 4, TMP 100000 nM): 5917
CD40L expression (MFI) ([1]; CD4+, Post Thaw, TMP 0.1 nM): 153
CD40L expression (MFI) ([1]; CD4+, Post Thaw, TMP 1 nM): 156
CD40L expression (MFI) ([1]; CD4+, Post Thaw, TMP 10 nM): 158
CD40L expression (MFI) ([1]; CD4+, Post Thaw, TMP 100 nM): 165
CD40L expression (MFI) ([1]; CD4+, Post Thaw, TMP 1000 nM): 166
CD40L expression (MFI) ([1]; CD4+, Post Thaw, TMP 10000 nM): 186
CD40L expression (MFI) ([1]; CD4+, Post Thaw, TMP 100000 nM): 395
CD40L expression (MFI) ([1]; CD4+, Restim, TMP 0.1 nM): 631
CD40L expression (MFI) ([1]; CD4+, Restim, TMP 1 nM): 647
CD40L expression (MFI) ([1]; CD4+, Restim, TMP 10 nM): 645
CD40L expression (MFI) ([1]; CD4+, Restim, TMP 100 nM): 644
CD40L expression (MFI) ([1]; CD4+, Restim, TMP 1000 nM): 737
CD40L expression (MFI) ([1]; CD4+, Restim, TMP 10000 nM): 1382
CD40L expression (MFI) ([1]; CD4+, Restim, TMP 100000 nM): 6275
CD40L expression (MFI) ([1]; CD8+, Day 4, TMP 0.1 nM): 181
CD40L expression (MFI) ([1]; CD8+, Day 4, TMP 1 nM): 178
CD40L expression (MFI) ([1]; CD8+, Day 4, TMP 10 nM): 182
CD40L expression (MFI) ([1]; CD8+, Day 4, TMP 100 nM): 182
CD40L expression (MFI) ([1]; CD8+, Day 4, TMP 1000 nM): 204
CD40L expression (MFI) ([1]; CD8+, Day 4, TMP 10000 nM): 393
CD40L expression (MFI) ([1]; CD8+, Day 4, TMP 100000 nM): 1941
CD40L expression (MFI) ([1]; CD8+, Post Thaw, TMP 0.1 nM): 111
CD40L expression (MFI) ([1]; CD8+, Post Thaw, TMP 1 nM): 116
CD40L expression (MFI) ([1]; CD8+, Post Thaw, TMP 10 nM): 114
CD40L expression (MFI) ([1]; CD8+, Post Thaw, TMP 100 nM): 117
CD40L expression (MFI) ([1]; CD8+, Post Thaw, TMP 1000 nM): 118
CD40L expression (MFI) ([1]; CD8+, Post Thaw, TMP 10000 nM): 129
CD40L expression (MFI) ([1]; CD8+, Post Thaw, TMP 100000 nM): 236
CD40L expression (MFI) ([1]; CD8+, Restim, TMP 0.1 nM): 254
CD40L expression (MFI) ([1]; CD8+, Restim, TMP 1 nM): 257
CD40L expression (MFI) ([1]; CD8+, Restim, TMP 10 nM): 258
CD40L expression (MFI) ([1]; CD8+, Restim, TMP 100 nM): 255
CD40L expression (MFI) ([1]; CD8+, Restim, TMP 1000 nM): 258
CD40L expression (MFI) ([1]; CD8+, Restim, TMP 10000 nM): 382
CD40L expression (MFI) ([1]; CD8+, Restim, TMP 100000 nM): 1185

B3: OT-001672: Soluble CD40L (sCD40L) construct (protein)
chain: GSMHMQKGDQNPQIAAHVISEASSKTTSVLQWAEKGYYTMSNNLVTLENGKQLTVKRQGLYYIYAQVTFCSNREASSQAPFIASLCLKSPGRFERILLRAANTHSSAKPCGQQSIHLGGVFELQPGASVFVNVTDPSQVSHGTGFTSFGLLKL
Stabilization Ratio (HEK293T cells; soluble CD40L +Ligand versus Vehicle): 3.3
functionality in HEK-Blue CD40 assay (HEK-Blue CD40): higher functionality

B4: OT-001667 (Met; ER (aa 305-549 of WT, T371A, L384M, M421G, N519S, G521R, Y537S); Histidine; CD40L; stop) (ligand)
chain: MSLALSLTADQMVSALLDAEPPILYSEYDPTRPFSEASMMGLLTNLADRELVHMINWAKRVPGFVDLALHDQVHLLECAWMEILMIGLVWRSMEHPGKLLFAPNLLLDRNQGKCVEGGVEIFDMLLATSSRFRMMNLQGEEFVCLKSIILLNSGVYTFLSSTLKSLEEKDHIHRVLDKITDTLIHLMAKAGLTLQQQHQRLAQLLLILSHIRHMSSKRMEHLYSMKCKNVVPLSDLLLEMLDAHRLHMIETYNQTSPRSAATGLPISMKIFMYLLTVFLITQMIGSALFAVYLHRRLDKIEDERNLHEDFVFMKTIQRCNTGERSLSLLNCEEIKSQFEGFVKDIMLNKEETKKENSFEMQKGDQNPQIAAHVISEASSKTTSVLQWAEKGYYTMSNNLVTLENGKQLTVKRQGLYYIYAQVTFCSNREASSQAPFIASLCLKSPGRFERILLRAANTHSSAKPCGQQSIHLGGVFELQPGASVFVNVTDPSQVSHGTGFTSFGLLKL
SEAP reporter of HEK-Blue CD40 cells co-cultured 24 hours with transduced Jurkat cells plus 1 µM Bazedoxifene, given as Soluble CD40L (pg/ml) against a recombinant soluble CD40L standard (CD40): 2570 pg/mL
Soluble CD40L (HEK-Blue™ CD40 cells): 2565.91 pg/mL
